{"source": "patent US20250339569A1", "about": "“CARBONIC ANHYDRASE IX LIGANDS” (priority 2021, published 2025)", "key": {"[1]": {"biological_target": "murine carbonic anhydrase 9 (CAIX) (mouse) (UniProt Q8VHB5)", "sequence (Q8VHB5 32-437 limits assumed)": "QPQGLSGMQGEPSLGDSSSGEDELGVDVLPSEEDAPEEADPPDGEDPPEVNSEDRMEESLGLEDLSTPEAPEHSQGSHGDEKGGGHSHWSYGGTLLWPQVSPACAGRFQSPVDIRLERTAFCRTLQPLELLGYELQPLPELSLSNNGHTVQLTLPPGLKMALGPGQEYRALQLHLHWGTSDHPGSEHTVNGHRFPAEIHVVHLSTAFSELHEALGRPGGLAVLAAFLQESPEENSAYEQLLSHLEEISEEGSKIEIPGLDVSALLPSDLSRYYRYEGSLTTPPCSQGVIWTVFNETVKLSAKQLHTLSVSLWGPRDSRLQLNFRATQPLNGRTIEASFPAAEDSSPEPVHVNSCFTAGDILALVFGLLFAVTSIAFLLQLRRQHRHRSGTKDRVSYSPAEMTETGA", "test": "radioligand saturation binding on CHO-msCAIX cells, 8 h at 37 °C, experiment i"}, "[2]": {"biological_target": "murine carbonic anhydrase 9 (CAIX) (mouse) (UniProt Q8VHB5)", "test": "radioligand saturation binding on CHO-msCAIX cells, 8 h at 37 °C, single experiment"}}}
{"substance": "[^111In]In-DPI-4452 (peptide)", "values": [{"measurement": "Bmax", "setting": "[1]", "value": 5.6, "unit": "fmol/µg prot"}, {"measurement": "pKd", "setting": "[1]", "value": "7.2 -log10(M)"}, {"measurement": "Mean Bmax", "setting": "[2]", "value": 5.6, "unit": "fmol/µg prot"}]}
